# Reference: publication PMC5514624
# T1: SRCRP2-11-R (Homo sapiens, UniProt Q9UGM3, E4R)
# T1 chain: GRVRVLYRGSW
# T2: SRCRP2-11 (Homo sapiens, UniProt Q9UGM3)
# T2 chain: GRVEVLYRGSW
# B1: tdTomato1 siRNA (dsRNA)
# RNA 1: UUGGUGUCCACGUAGUAGUAG
# RNA 2: CUACUACUACGUGGACACCAA
# Legend:
# SRCRP2-11-R = target: T1, SRCRP2-11-R; test: EMSA
# SRCRP2-11 = target: T2, SRCRP2-11; test: EMSA
binder,measurement,setting,value
B1,binding result,SRCRP2-11-R,binds
same,binding result,SRCRP2-11,binds
